Molecular target: NTR 2.0 (engineered nitroreductase; Vibrio vulnificus NfsB F70A/F108Y) (Vibrio vulnificus (CMCP6))
Assay: crystal structure; hanging-drop vapour diffusion at 291 K; protein 10 mg/mL in 40 mM Tris-HCl pH 7.0, 200 mM NaCl; precipitant 0.1 M sodium acetate trihydrate pH 4.5, 32% (v/v) PEG 300; two molecules in the asymmetric unit; FMN and acetate bound

NTR 2.0 (engineered nitroreductase; Vibrio vulnificus NfsB F70A/F108Y) (enzyme)
stoichiometry N: 2

— paper PMC10095097
